# Experimental data taken from patent US11857697B2, “Compositions and methods for obtaining 3-dimensional lung-like epithelium and related uses thereof” (THE REGENTS OF THE UNIVERSITY OF MICHIGAN, priority 2017, dated 2024).
# “Also recorded” adds a separate entry of the source.
# B1: Recombinant Human Fibroblast Growth Factor 7 (protein, UniProt P21781 32-194, looked up)
# Fibroblast growth factor 7: CNDMTPEQMATNVNCSSPERHTRSYDYMEGGDIRVRRLFCRTQWYLRIDKRGKVKGTQEMKNNYNIMEIRTVAVGIVAIKGVESEFYLAMNKEGKLYAKKECNEDCNFKELILENHYNTYASAKWTHNGGEMFVALNQKGIPVRGKKTKKEQKTAHFLPMAIT
# notes: Recombinant human growth factor from R&D systems, used at 10 ng/mL unless otherwise noted
# Legend:
# Assay type in all cases: cell-based
# E13.5 mouse lung buds = experiment: Marker expression (QRT-PCR, immunostaining) in cultured mouse lung buds
# Description: (§1) RNA was extracted using the MagMAX-96 Total RNA Isolation System (Life Technologies). RNA quality and concentration was determined on a Nanodrop 2000 spectrophotometer (Thermo Scientific). 100 ng of RNA was used to generate a cDNA library using the SuperScript VILO cDNA master mix kit (Invitrogen) according to manufacturer's instructions. qRT-PCR analysis was conducted using Quantitect SYBR Green Master Mix (Qiagen) on a Step One Plus Real-Time PCR system (Life Technologies). Expression was calculated as a change relative to GAPDH expression using arbitrary units, which were calculated by the following equation: [2^(GAPDH Ct−Gene Ct)]×10,000. A Ct value of 40 or greater was considered not detectable. A list of primer sequences used can be found in Table 1.
# (§2) Mouse bud, human bud, and HLO tissue was fixed in 4% Paraformaldehyde (Sigma) for 2 hours and rinsed in PBS overnight. Tissue was dehydrated in an alcohol series, with 30 minutes each in 25%, 50%, 75% Methanol:PBS/0.05% Tween-20, followed by 100% Methanol, and then 100% Ethanol. Tissue was processed into paraffin using an automated tissue processor (Leica ASP300). Paraffin blocks were sectioned 5-7 uM thick, and immunohistochemical staining was performed as previously described (Spence et al., 2009). A list of antibodies, antibody information and concentrations used can be found in Table 2. PAS Alcian blue staining was performed using the Newcomer supply Alcian Blue/PAS Stain kit (Newcomer Supply, Inc.) according to manufacturer's instructions.
# For whole mount staining tissue was placed in a 1.5 mL eppendorf tube and fixed in 4% paraformaldehyde (Sigma) for 30 minutes. Tissue was then washed with PBS/0.05% Tween-20 (Sigma) for 5 hours, followed by a 2.5-hour incubation with blocking serum (PBS-Tween-20 plus 5% normal donkey serum). Primary antibodies were added to blocking serum and tissue was incubated for at least 24 hours at 4 degrees Celsius. Tissue was then washed for 5 hours with several changes of fresh PBS-Tween-20. Secondary antibodies were added to fresh blocking solution and tissue was incubated for 12-24 hours, followed by 5 hours of PBS-Tween-20 washes. Tissue was then dehydrated to 100% methanol and carefully moved to the center of a single-well EISCO concave microscope slide (ThermoFisher Cat#S99368) using a glass transfer pipette. 5-7 drops of Murray's clear ([…] [Sigma]) were added to the center of the slide, and slides were coverslipped and sealed with clear nail polish.
# [1] = tested on: e13.5 CD1 mouse epithelial lung buds; experiment: EdU incorporation quantified by flow cytometry in cultured mouse lung buds; conditions: 50-100 ng/mL FGF7 versus 1-10 ng/mL, one week culture, 1 hour EdU pulse
# Description: Epithelial lung buds were dissected from e13.5 CD1 mice and plated in a matrigel droplet as described above. 3-4 individual buds from one mouse were placed in each droplet and were pooled to serve as a single biological replicate. Three droplets (corresponding to 3 independent biological samples) were assigned to each experimental group, receiving either 1, 10, 50 or 100 ng/mL of FGF7 for 7 days. Media was changed every 2-3 days. Cells were incubated with EdU for 1 hour and stained with the Click-It EdU Alexa Fluor 488 system (ThermoFisher Cat# C10337) according to the manufacturer's instructions. As a control, wells that received 10 ng/mL of FGF7 for 7 days were taken through the EdU steps but were not stained were used to set the gates. For analysis, lung buds were broken into a single cell suspension. 1 mL of accutase (Sigma Cat# A6964) was added to a 15 mL conical tube containing pooled epithelial buds and cells were incubated at 37 degrees Celsius with frequent visual inspection until clumps of cells were no longer visible. 3 mL of basal media (see below) was added to each tube, and cells were centrifuged at 300 g for 5 minutes at 4 degrees Celsius. The supernatant was then withdrawn, and cells were resuspended with 1 mL sterile PBS, filtered through a 70 uM strainer to remove any cell clumps and transferred to a cell sorting tube. […]
# human fetal lung buds = experiment: Marker expression (QRT-PCR, immunostaining) in cultured human fetal lung buds
# Description: as §1
# as §2, with “PAS Alcian blue staining was performed using the Newcomer supply Alcian Blue/PAS Stain kit (Newcomer Supply, Inc.) according to manufacturer's instructions.” left out
molecule,measurement,setting,value
B1,Scgb1a1 expression after switch to FGF7 only (QRT-PCR),"E13.5 mouse lung buds; 5 days 4F media then 4 days FGF7 only, versus 4F",increased
same,SOX9 protein and mRNA expression after switch to FGF7 only,"E13.5 mouse lung buds; 5 days 4F media then 4 days FGF7 only, versus 4F throughout",reduction of SOX9 protein and mRNA expression
same,Sox9 expression over time in culture (QRT-PCR),"E13.5 mouse lung buds; FGF7 culture, compared to day 0",significantly reduced after 3 days in culture
same,Expression of mature alveolar markers Aqp5 and Sftpb over time (QRT-PCR),"E13.5 mouse lung buds; FGF7 culture, length of time in culture",significant increases
same,Proliferation (EdU labeled cells),[1],increased proliferation significantly; also recorded: significant increase in labeled cells
same,Expression of proximal airway markers P63 and SCGB1A1 (QRT-PCR),"human fetal lung buds; 4 weeks in culture, compared to 14 week old human fetal lung",significantly increased expression
same,SOX9 and SOX2 immunostaining,"human fetal lung buds; sections and wholemount, 4 weeks in vitro","expressed both markers, but strong cytoplasmic SOX9 localization was observed"
